The target in this assay is dynamin 2-K562E (baculovirus) (rat). As to the kind of experiment: not stated; polymerization of recombinant (baculovirus) dynamin 2 with or without Bis-T-23; method in Supplementary Figures S2E, F.

As for dynamin 2-K562E (baculovirus) (enzyme), the fold increase of polymerization with Bis-T-23 against without Bis-T-23 stood at 3.5 times.

For the origin of these results see publication PMC9127447.
